The values below are quoted from earlier work in publication PMC9887155, “Kinetics of cone specific G-protein signaling in avian photoreceptor cells” (Frontiers in Molecular Neuroscience, 2023).

This data set has as its target Gtα (Bos taurus) (UniProt P04695). Nature of the data set: SPR.

rhodopsin (dark-adapted), sequence (P02699 whole entry): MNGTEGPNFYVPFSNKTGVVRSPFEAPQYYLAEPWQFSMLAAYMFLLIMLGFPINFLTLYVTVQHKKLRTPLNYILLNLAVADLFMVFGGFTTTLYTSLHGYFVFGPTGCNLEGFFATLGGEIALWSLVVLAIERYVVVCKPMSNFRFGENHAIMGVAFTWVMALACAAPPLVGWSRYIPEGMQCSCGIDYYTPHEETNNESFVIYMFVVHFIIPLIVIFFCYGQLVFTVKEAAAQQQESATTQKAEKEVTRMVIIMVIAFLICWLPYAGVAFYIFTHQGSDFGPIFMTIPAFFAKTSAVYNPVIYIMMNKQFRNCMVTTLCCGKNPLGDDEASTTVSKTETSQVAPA
Gtα (Bos taurus), sequence (P04695 2-350): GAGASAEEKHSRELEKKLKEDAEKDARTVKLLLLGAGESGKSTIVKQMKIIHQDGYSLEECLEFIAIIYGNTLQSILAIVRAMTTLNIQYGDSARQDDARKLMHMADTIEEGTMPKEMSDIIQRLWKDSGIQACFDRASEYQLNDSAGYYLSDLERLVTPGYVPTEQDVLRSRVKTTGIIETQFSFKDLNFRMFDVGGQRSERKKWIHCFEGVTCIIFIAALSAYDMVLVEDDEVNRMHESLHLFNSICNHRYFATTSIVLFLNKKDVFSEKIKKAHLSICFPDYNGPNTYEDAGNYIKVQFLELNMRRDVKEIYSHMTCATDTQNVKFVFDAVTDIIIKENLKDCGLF

As for “rhodopsin (dark-adapted) (from UniProt P02699)”, the Kd (in general, the constant that tells how readily two partners part at equilibrium) was 360 nM.
